Patent US20250236650A1

Target: murine CTLA-4 fused to CD3ζ, expressed on the murine T-cell hybridoma 58α-β-CTLA-4/CD3ζ (murine) (UniProt P09793)
Assay: flow cytometry on 58α-β-CTLA-4/CD3ζ cells, R-PE donkey anti-mouse IgG secondary antibody, MFI

Chain of mouse anti-mouse CTLA-4 antibody 9D9, mouse IgG1 isotype (light): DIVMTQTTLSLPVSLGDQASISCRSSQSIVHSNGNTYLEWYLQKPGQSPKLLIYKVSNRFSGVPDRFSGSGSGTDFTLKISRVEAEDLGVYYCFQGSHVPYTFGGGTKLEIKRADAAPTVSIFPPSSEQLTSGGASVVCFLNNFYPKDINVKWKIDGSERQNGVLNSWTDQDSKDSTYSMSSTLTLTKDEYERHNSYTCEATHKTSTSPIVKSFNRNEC
Chain of mouse anti-mouse CTLA-4 antibody 9D9, mouse IgG1 isotype (heavy): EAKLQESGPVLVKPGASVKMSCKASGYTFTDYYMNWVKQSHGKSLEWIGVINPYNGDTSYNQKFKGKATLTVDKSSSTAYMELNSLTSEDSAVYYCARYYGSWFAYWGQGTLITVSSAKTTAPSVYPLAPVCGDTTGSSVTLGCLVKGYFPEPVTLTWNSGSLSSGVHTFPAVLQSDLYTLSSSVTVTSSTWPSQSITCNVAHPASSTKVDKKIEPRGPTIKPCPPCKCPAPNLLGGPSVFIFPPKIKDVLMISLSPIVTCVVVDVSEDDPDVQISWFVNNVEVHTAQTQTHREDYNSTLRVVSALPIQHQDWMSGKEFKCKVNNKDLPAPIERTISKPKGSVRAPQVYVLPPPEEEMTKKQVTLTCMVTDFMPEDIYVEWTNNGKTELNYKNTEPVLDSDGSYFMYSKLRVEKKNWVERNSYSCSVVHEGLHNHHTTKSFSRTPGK
Chain of mouse anti-mouse CTLA-4 antibody 9D9, mouse IgG2b isotype (original isotype, derived from the hybridoma) (light): as the sequence (light) above
Chain of mouse anti-mouse CTLA-4 antibody 9D9, mouse IgG2b isotype (original isotype, derived from the hybridoma) (heavy): as the sequence (heavy) above
Chain of mouse anti-mouse CTLA-4 antibody 9D9, mouse IgG2a isotype (light): as the sequence (light) above
Chain of mouse anti-mouse CTLA-4 antibody 9D9, mouse IgG2a isotype (heavy): as the sequence (heavy) above

| EC50 (read off the curve) [µg/mL] | Substance |
| --- | --- |
| 0.6 | mouse anti-mouse CTLA-4 antibody 9D9, mouse IgG1 isotype |
| 0.2 | mouse anti-mouse CTLA-4 antibody 9D9, mouse IgG1 isotype containing a D265A mutation (from UniProt P01868 1-324) |
| 0.7 | mouse anti-mouse CTLA-4 antibody 9D9, mouse IgG2a isotype |
| 0.4 | mouse anti-mouse CTLA-4 antibody 9D9, mouse IgG2b isotype (original isotype, derived from the hybridoma) |
